Data from patent US7807396B2, “Insulin degrading enzyme assays for treatment of alzheimer's disease” (University of Kentucky Research Foundation, priority 2000, dated 2010).

Molecular target: T1, β-endorphin (Homo sapiens, UniProt P01189)
T1 construct: Human β-endorphin1-31; purchased National Institute on Drug Abuse drug supply system
T1 sequence (P01189 237-267): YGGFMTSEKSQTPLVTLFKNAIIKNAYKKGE
Experiment: Insulysin activity determination, disappearance of β-endorphin by HPLC
Format: biochemical
Settings: 30 μM β-endorphin, 37° C.
Protocol: Materials. […] Solutions were prepared by dissolving the peptide in dimethylsulfoxide (DMSO) to give a stock concentration of 200 μM. The peptide stock was lyophilized and stored at −80° C. until use. The aggregation state of Aβ peptide stock solutions was checked by electron microscopy (Ray et al. (2000) Brain Res 853:344-351) and found to be predominantly, if not exclusively, monomeric. For the in vitro reactions with insulysin, a final concentration of 25 μM Aβ1-40 was obtained after bringing the lyophilized peptide into solution with double distilled water. […] Human β-endorphin1-31, obtained from the National Institute on Drug Abuse drug supply system, was dissolved in water to give a stock solution of 300 μM. Trifluoroacetic acid (Sigma Biochemicals, St. Louis, Mo.) was diluted into water to produce a 5% working solution.
Insulysin activity was assayed by measuring the disappearance of β-endorphin by isocratic reverse phase HPLC (Safavi et al. (1996) Biochemistry 1996 35:14318-14325). A 100 μl reaction mixture containing 40 mM potassium phosphate buffer, pH 7.2, 30 μM β-endorphin, and enzyme was incubated for 15 minutes at 37° C. […] The β-endorphin peak was detected by absorbance at 214 nm using a Waters 484 detector. The reaction was quantitated by measuring the decrease in the β-endorphin peak area.

B1: enzyme purified from a thymoma cell line, EL-4: insulysin enzyme purified from a thymoma cell line, EL-4, used for comparison of specific activity (protein, UniProt Q9JHR7 1-1019, looked up)
Insulin-degrading enzyme: MRNGLVWLLHPALPGTLRSILGARPPPAKRLCGFPKQTYSTMSNPAIQRIEDQIVKSPEDKREYRGLELANGIKVLLISDPTTDKSSAALDVHIGSLSDPPNIPGLSHFCEHMLFLGTKKYPKENEYSQFLSEHAGSSNAFTSGEHTNYYFDVSHEHLEGALDRFAQFFLCPLLDASCKDREVNAVDSEHEKNVMNDAWRLFQLEKATGNPKHPFSKFGTGNKYTLETRPNQEGIDVREELLKFHSTYYSSNLMAICVLGRESLDDLTNLVVKLFSEVENKNVPLPEFPEHPFQEEHLRQLYKIVPIKDIRNLYVTFPIPDLQQYYKSNPGYYLGHLIGHEGPGSLLSELKSKGWVNTLVGGQKEGARGFMFFIINVDLTEEGLLHVEDIILHMFQYIQKLRAEGPQEWVFQECKDLNAVAFRFKDKERPRGYTSKIAGKLHYYPLNGVLTAEYLLEEFRPDLIDMVLDKLRPENVRVAIVSKSFEGKTDRTEQWYGTQYKQEAIPEDVIQKWQNADLNGKFKLPTKNEFIPTNFEILSLEKDATPYPALIKDTAMSKLWFKQDDKFFLPKACLNFEFFSPFAYVDPLHCNMAYLYLELLKDSLNEYAYAAELAGLSYDLQNTIYGMYLSVKRYNDKQPILLKKITEKMATFEIDKKRFEIIKEAYMRSLNNFRAEQPHQHAMYYLRLLMTEVAWTKDELKEALDDVTLPRLKAFIPQLLSRLHIEALLHGNITKQAALGVMQMVEDTLIEHAHTKPLLPSQLVRYREVQLPDRGWFVYQQRNEVHNNCGIEIYYQTDMQSTSENMFLELFCQIISEPCFNTLRTKEQLGYIVFSGPRRANGIQGLRFIIQSEKPPHYLESRVEAFLITMEKAIEDMTEEAFQKHIQALAIRRLDKPKKLSAECAKYWGEIISQQYNYDRDNIEVAYLKTLTKDDIIRFYQEMLAVDAPRRHKVSVHVLAREMDSCPVVGEFPSQNDINLSEAPPLPQPEVIHNMTEFKRGLPLFPLVKPHINFMAAKL
Question: Which specific activity does the source give for B1 here?
Answer: 3.3 μmols/min/mg
